Measured values reported in publication PMC7988105.

Tests used:
[1] = biological target: NRXN1β (lacking SS4) Fc fusion used as bait in the pull-down; experiment: pull-down; soluble recombinant proteins mixed at 0.03 μM each in HBSS, 2 mM CaCl2, 1 mM MgCl2, 3 h, then Protein A-Sepharose 1 h, room temperature; NLGN3-His6 detected with anti-His
[2] = biological target: PTPδA3B– extracellular domain fused to Fc; experiment: pull-down; conditions: parent: est. 100; read off a plot
[3] = biological target: mouse NLGN3 ECD (residues 35–684) with C-terminal His6 tag (mouse) (UniProt Q8BYM5); experiment: ITC; NLGN3 ECD (20 µM) in the cell, PTPδ Ig1–Fn1 (200 µM) injected; 20 mM Tris-HCl pH 8.0, 150 mM NaCl, 25 °C; one-site model
mouse NLGN3 ECD (residues 35–684) with C-terminal His6 tag (mouse), sequence (Q8BYM5 35-684): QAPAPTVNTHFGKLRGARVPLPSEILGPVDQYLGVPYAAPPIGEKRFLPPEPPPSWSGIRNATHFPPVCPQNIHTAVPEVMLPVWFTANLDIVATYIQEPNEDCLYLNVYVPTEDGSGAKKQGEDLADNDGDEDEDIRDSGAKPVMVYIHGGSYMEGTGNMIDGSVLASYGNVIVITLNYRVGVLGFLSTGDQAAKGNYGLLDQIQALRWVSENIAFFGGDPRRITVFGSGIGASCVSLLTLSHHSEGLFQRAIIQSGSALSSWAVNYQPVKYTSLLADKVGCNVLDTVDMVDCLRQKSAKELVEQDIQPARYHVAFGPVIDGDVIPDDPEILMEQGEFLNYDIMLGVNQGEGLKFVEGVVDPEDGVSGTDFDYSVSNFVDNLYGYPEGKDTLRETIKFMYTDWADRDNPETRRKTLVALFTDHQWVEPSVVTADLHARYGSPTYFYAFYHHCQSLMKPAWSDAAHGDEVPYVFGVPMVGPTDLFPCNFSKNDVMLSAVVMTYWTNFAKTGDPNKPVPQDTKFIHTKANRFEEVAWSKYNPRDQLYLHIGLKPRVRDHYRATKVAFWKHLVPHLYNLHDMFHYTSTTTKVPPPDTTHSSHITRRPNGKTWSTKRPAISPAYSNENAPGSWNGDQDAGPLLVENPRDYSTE

[4] = biological target: NLGN3 ECD HSE/AAA mutant (H279A S280A E281A) with His6 tag (mouse) (UniProt Q8BYM5); experiment: as above
NLGN3 ECD HSE/AAA mutant (H279A S280A E281A) with His6 tag (mouse), sequence (Q8BYM5 35-684 H279A/S280A/E281A): as the sequence (Q8BYM5 35-684) above, with H245A, S246A, E247A counted along it

[5] = biological target: NLGN3 ECD MF/IS mutant (M614I F615S) with His6 tag (mouse) (UniProt Q8BYM5); experiment: as above
NLGN3 ECD MF/IS mutant (M614I F615S) with His6 tag (mouse), sequence (Q8BYM5 35-684 M614I/F615S): as the sequence (Q8BYM5 35-684) above, with M580I, F581S counted along it

| percent of parent [2] [% WT] | Substance | further results |
| --- | --- | --- |
|  | NLGN3 ECD R448C mutant (R/C; equivalent to human R451C) with His6 tag (from UniProt Q8BYM5 35-684) (domain or fragment) | pulldown efficiency (% of wild-type) (% of wild-type) [1]: 40 |
| 11 | mouse NLGN3 ECD (residues 35–684) with C-terminal His6 tag (from UniProt Q8BYM5) M614A; F615A |  |
| 16 | mouse NLGN3 ECD (residues 35–684) with C-terminal His6 tag (from UniProt Q8BYM5) D362A; E372A; N375A |  |
|  | PTPδA3B– Ig1–Fn1 (domain or fragment) | Kd [3]: 4.4 µM; Kd [4]: 1.4 µM; Kd [5]: 27 µM |
| 88 | mouse NLGN3 ECD (residues 35–684) with C-terminal His6 tag (from UniProt Q8BYM5) H279A; S280A; E281A |  |
| 14 | mouse NLGN3 ECD (residues 35–684) with C-terminal His6 tag (from UniProt Q8BYM5) M614I; F615S |  |
